Measurements as given in the supplement of paper PMC11502859.
“And” between values parts separate entries of the source, which are not always exact repeats. Equal values may be shown once.

System: HEK293T
Assay: median enrichment of reporter reads in eGFP-reduced (low/intermediate) vs eGFP-high sorted cells (eGFP-extension fusion abundance) (ratio); higher = stronger loss of eGFP-fusion protein abundance (more destabilising extension)
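Also: lentiviral eGFP-IRES-mCherry reporter pool sorted by FACS 96 h post-transduction, gated on mCherry-high cells, Illumina read counts normalized per million, median across four biological replicates.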

CASP8, sequence (chain, as listed by the source): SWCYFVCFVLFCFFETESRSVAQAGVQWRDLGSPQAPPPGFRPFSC

Substance	median enrichment
AAA [Ala03]	0.262
AAAA [Ala04]	11.6
AAAAA [Ala05]	4.35
AAAAAA [Ala06]	8.25
AAAAAAA [Ala07]	8.7
AAAAAAAA [Ala08]	7.64
AAAAAAAAA [Ala09]	8.59
AAAAAAAAAA [Ala10]	8.89
ACKNWFSSLSHFVIHL [Degron CL1]	8.24
ACVARPDKHLQMAAAPTWDLPRRLEQKGLSLGWCFSSRVLGCMFCTASREGVSGGHHLWDTGSKGPVHSVISFLAPASPTSPR [TMEM141]	4.72
ADLTPAQPPPPTSHSGLVLCLLFRTPLCPPKRQKKKKKKKSKKTSEKSAAKKWMSCNFSRDGAGGVCVPTGPGGPLRGGHAAR [PITX1]	10
AESLGSDLAAWGESLGSVLAAWGAGIAQSMNGPTPAKAESLGPVSPAAHGTGIAHGVRSVHLQGLRPWAQSALLLRVQALHMV [WNT9A]	7.26
AEWPGTCLKCLFPISLRDQEGILGMPLTSLLSRQQKWRGSQESALNCPPGWQGSLNRYLELGSGLFPCVLTTRASCSRAGIRG [F11R]	9.01
AGAQPLPGMRLSADGETATQSFGLCVCVCVCVCVCAHPRVPVCVRILPPGAEVPWVSPLLCNGLLTGAAAPRGLCSGGTQCRM [FGFR3]	6.29
AGRAPPCMMGKAILPLPPPCFCCLFGEGGGEVGAAAPHPSSLLICTHWPLQTRTSGASPSPPPPCLAAGVAMMGWSSLGQGVL [SCN1B]	3.87
APLGLEFATGRILQRQVVPGPLLHPFSRRPCQRLHPVVNLVWRQRLRGWTSIVGQGLTLQGFCSWLWTPENPLLPSPNTRFLT [FAM110A]	5.18
APRAPRQRSRDG [Degron KLHDC3]	10.8
APSCLSRCDRARPKPGCTLLDWASLHCLGKSAEGPKLLRGLRLVPTPKLVCSLPLPARVSGPRSIENTTTMARWKGLLVPASS [MLST8]	5.58
ASVLLRGAVCGEGLSWQGKHLRVTLTLGPLLFLKRLLATGKKNDLATLEETSAKEDVLASLSYFCSVVDLHIVVYLVWKCVSK [POLR1D]	7.42
CAAQTEAQAQGRNLEQGHFGHSRTGERQLYFSLGQLQRVGQALMGSDCQSDAVGPRQRKAGRRGARTFSPHCPFPFSGEHRRL [C16orf58]	4.54
CACPHPPSSLPSC [PADI1]	0.421
CAGAFVAISL [MSI2]	8.28
CALYLGSGQELHLGTNSC [ABCF2]	13.2

Substance	median enrichment
CAPAERRLETGATASRVQQHSRHGSGRDSAWPRGTFPGQGPGGNWHGLVPLLCCILIPQPAPLGSDLSCPRAEPGGPEGEMNP [ANKRD13B]	6.25
CAPWWERL [HTT]	1.22
CAQDGPRPSMANNHVRHSTSGRCSDASAGAGTPNPWLQNRDPHPDRGSSAFEGFQAGLCGTEAQRGPGTWQRWGREEIQLPSL [CCDC86]	5.52
CAQKS [LCE6A]	0.549
CARAALEAPARGICPYPSWKDSWMW [HCRTR1]	10.8
CAS [FAM118B]	0.212
CASALEETTGSPICLEFLLLLLLVCFQISLCFLLCSRKVLQNHREKVHCYKGIPTHWRL [PAQR9]	25.9
CASP8	22.5
CASTRAVGDSCPHLCPRAASCLALPPHSPPGMGLLLPGSLKETAAC [FAM160B2]	6.35
CATLSVGFFLEDSTLLPHVLSQLQS [CSTF1]	8.47
CAWSAHRLSSAFALLRCYRTLAPDVCSFTGCLICLLHPTGPPTSSDVFLIMSAMCPILLHALPPFPTTAEWPGTCLKCLFPIS [F11R]	6.63
CCC [Cys03]	1.07
CCCC [Cys04]	2.06
CCCCC [Cys05]	4.25
CCCCCC [Cys06]	12.4
CCCCCCC [Cys07]	9.39
CCCCCCCC [Cys08]	8.63
CCCCCCCCC [Cys09]	7.96
CCCCCCCCCC [Cys10]	9.58
CCP [RUBCNL]	0.512
CCQDSCALRCK [MT1X]	0.374
CCSSVKEQQTWHWNRVENPGFCTWRGKMPSCFLINPNFIYSSGTLWG [OPALIN]	5.49
CCTKDLLF [GNA13]	1.47

Substance	median enrichment
CDAQTASSATKRPENSRFTTFLSHVEAFPFNRGPSSEPRPISAIFFS [LMBR1]	12
CDARQFLDLGGLKRPPSCLLSFSVSSFLLVFFILFSFHQPSCILALQRDRDRSSAQGFSLPLFIMGGGYHPPSQSCEESGTSF [NOTCH3]	9.5
CDPCKWDSPPVHEAWLLQYLLVEELYSKMKRKNKQTNKKKHKKRKNTFLYLTMFFEYVFFL [RBFOX2]	0.264
CDPPRPPEWPPPHHSTMGLDARVIVVQNRRENRPATHKGQG [TMEM151A]	4.51
CDQLSCTNFEV [IFNGR1]	0.207
CEA [NPSR1]	10.3
CEGQTPEEPLQ [CXCL12]	0.136
CEGYYPFYYGTMPCVKNNHPLAYSH [DPY19L2]	8.92
CELLPCPSFPPCTT [FEZF2]	0.681
CEQ [PRF1]	12.2
CEQQMELWERGEQWGYRESSSALPLGQPHLPAVSPGHFSTSQVEVLQGPAATCIRRTSFSA [SPATA19]	2.8
CERGLSSSLPAPSSPRPSSLCAW [HOXC10]	2.77
CESVHQTKCGKNTKKT [GYPA]	0.413
CETHNFISHSDHRLLNIADRNRSLQGV [TAS2R13]	2.12
CFSRGQGGEGASGGVGAGGTVPREPGGSHTRTAPVSSGHCNPVGLFLQHSRSLPSIATLQTPG [SFRP1]	4.21
CFSVNLSLLVERSGACPSSQTSDL [LRRC46]	5.72
CFWNRVKLSQRRRKSPGICTS [PPP1R14C]	13.7
CGA [FOSL1]	0.817
CGAARRSR [METAP1D]	1.33
CGACYGLNCAPK [ZNF81]	1.07
CGAEHHPSH [PPM1J]	0.355
CGALRPS [PNKD]	0.539
CGCAPAGSSKDRPARSPSNPTFFWKGGVLQGQAGASSRLLGANPSMYIAFLSCLRAADSQRCARGERCAVGSRA [TNFRSF1A]	13.5

Substance	median enrichment
CGCQLGRKRETRP [CCND2]	0.808
CGEPLAWPTNLGFTIQTADWMKLCTFLSLQLPYVESVIFICTFFAT [TAF7L]	10.8
CGGLPRRAKMAEMILKITEEREDQPEFPLDICVFLFFYFVLFFLLLLLP [SOX9]	9.11
CGGLVSELGLCRESLFCVSHPLPDPSLCLYSLNSVEFN [MCM3]	13.4
CGHLSGPGALMEAIGTPELPSHS [ODF2]	0.872
CGIII [SRGAP2]	1.59
CGILGDSPREELGC [CEP85]	0.759
CGILRWLACWAWGLLTDSMEQGWAVCAHAQHALRGGGGGRGFLMSVQELKVSGVLPRICPTPHDKTELCNKQYQFILAVGFCF [WDR6]	9.47
CGIQRERGSGRGGPEWGRLEGYRPAWMT [SNCG]	3.44
CGLGRFS [IMMT]	0.695
CGLGWAGARRAAGWPLGGQDGTVGTEVGGRGPSGLN [TNFRSF8]	5.21
CGLLPLGPLTLSGWWTTKYNPVYNLKIYFTFVLLYLFIKG [SMAD4]	2.65
CGLPSGGGAMWLGS [SMYD1]	0.906
CGPDCSLHSAHSICSHPPSLTQPPLSGILPQMRSERQ [ABHD6]	0.625
CGPEASWVSLGPQKLIKE [PCP2]	0.292
CGPGGSGRGWPHPHDHCPGGGGLLLLSF [BIK]	10.6
CGRCTRQEEGDWGPWPGTVLLRGRRRLQQSHGSPRGEGCLSRFLRPRRSDFWARGHARAVQSWPGPPVGLLCSLPSLPPDAGP [FRMD8]	5.53
CGRPELSRPPPALLGAGVLDPWHLPGPLT [LLGL1]	2.46
CGRTSALSDRTLRAMLPCHP [MRGPRX3]	6.32
CGSCGCPCCVALYDCC [NDUFB10]	4.77
CGSLRTTASLLLTSVATEAERQSDTSTGAPGEMGPA [PEX26]	0.412
CGSRPGRPFARRRGMGERT [ARHGEF1]	7.51
CGVSPGLMVCLL [APOBEC3F]	12.2

Substance	median enrichment
CGWNQGQPALRASVLLRGAVCGEGLSWQGKHLRVTLTLGPLLFLKRLLATGKKNDLATLEETSAKEDVLASLSYFCSVVDLHI [POLR1D]	8.09
CGWPRAVRTMKPGQRPGASPAALPTRHPPASPLGAGAHPQHPHLLINISTPGCST [COPE]	5.98
CHLRNI [MLLT10]	1.38
CHRGKRRKSC [CLDN1]	0.437
CIFFYQEG [PTEN]	6.73 and 8.49
CITKCLYCLK [EFCAB1]	7.35
CIYTAKKNYECMEFFKKKYNALLQRTLGKKPYVKVMTVK [ZNF140]	22.2
CKKKKKKALAFSCLFC [PCDH17]	46.4
CLERW [LCOR]	1.17
CLFCPHIFCFLGRMAEAWWLPPRSGTD [NR1H3]	12.1
CLGKAGHKNLHEQYFFLNRMFYYSSQVLECLHTII [FAM24A]	4.34
CLGPGRATGSSQAAARMLISKRCWSLPS [ZBTB39]	30.1
CLGVKAFHGHPCTGYLLVMLQNVSPTLCPSLALLPQSP [TEX35]	11.2
CLHW [RIMKLB]	3.73
CLL [ACSBG2]	7.26
CLQGSKLQR [OR7A5]	3.17
CLSGRANPENEDWKKEKKKNTSKVSSEIVLHLLYSLEDFHYVLTTLKCVNS [FOXP1]	9.44
CLSLPSSWDYSHTPPHLDNFVFLVETGFHYVGQAGLKLLSSGDPSASASQNAGITSVSHYTWFFFPLFANSHGVFWHHFQHYF [RBP1]	8.27
CLSTVLFS [SUDS3]	5.55
CMNEWVCWVGEGPGEGSGTEGMPGSLLPTASTDQQGLGQGGHPGGRGRLPPCLPAGGPRRRAGRVHVCGCPGDPGCLPCLPRP [TMEM91]	4.17
CNDKSRSKEIVGPKGKEGKSAPRLGPGTHTPPDHLGNSRALRSRMLTKSNIQSLVNQDAVSPSVWQSVALAAGKLKADFHSYV [RNF150]	4.3
CNHLTRTIGAPVASAHCLSLEKWRNKCYIYLCV [FAM149A]	6.79
